Results taken from patent US5385834, “Mutant T7 RNA polymerase GP1(lys222) exhibiting altered promoter recognition” (Georgia Tech Research Corporation).

How the values were obtained:
[1] = target: T7 RNA polymerase mutant GP1(lys222) (Bacteriophage T7, UniProt P00573 SEQ:1-883, E222K); test: EMSA; +/-5e3; 20-fold below wild-type; more easily disrupted by lambda DNA; 25 C; details: label: 32P
Experimental: (§1) FIG. 8: Binding of a T7 Promoter by Wild-type T7 RNA Polymerase and GP1(lys222). […] Lane 1-no RNA polymerase, 5 µM promoter; Lane 2-26.5 nM GP1(lys222), 5 µM promoter; Lane 3-132.7 nM GP1(lys222), 5 µM promoter; Lane 4-26.5 nM GP1(lys222), 5 µM promoter, 3 µg lambda DNA; Lane 5-132.7 nM GP1(lys222), 5 µM promoter, 3 µg lambda DNA; Lane 6-12.9 nM T7 RNA polymerase, 5 µM promoter, Lane 7-64.7 nM T7 RNA polymerase, 5 µM promoter; Lane 8-12.9 nM T7 RNA polymerase, 5 µM promoter, 3 µg lambda DNA; Lane 9-64.7 nM T7 RNA polymerase, 5 µM promoter, 3 µg lambda DNA. Complex=Position of the enzyme/promoter complexes. Promoter=Position of the unbound promoter oligo.
(§2) 12. Estimation of Promoter Binding. The ability of T7 RNA polymerase and GP1(lys222) to bind a T7 promoter was determined by a gel-retardation method [Muller, D. K., et al., *Biochemistry*, 27: 5763-5771 (1988)]. […] The promoter/polymerase complexes were then cut out of the gel, and the amount of promoter contained in the complexes was measured by liquid scintillation.

[2] = target: T7 RNA polymerase (wild-type) (Bacteriophage T7, UniProt P00573 SEQ:1-883); test: EMSA; +/-2.2e5; 10 mM K phosphate pH 7.8, 1 mM EDTA, 20 mM NaCl, 25 C; details: label: 32P
Experimental: as §1, §2

B1: 24 bp T7 promoter oligonucleotide (dsDNA)
DNA 1: ATTAATACGACTCACTATAGGACT
DNA 2: AGTCCTATAGTGAGTCGTATTAAT
Binder B1 has a Ka [1] of 14000 M⁻¹ and a Ka [2] of 280000 M⁻¹.
